{
  "source": "paper PMC12208539",
  "about": "“PPIL2 is a target of the JAK2/STAT5 pathway and promotes myeloproliferation via degradation of p53” (The Journal of Clinical Investigation, 2025)",
  "binders": {"B1": {"name": "recombinant GST-PPIL2-U-box (domain or fragment, UniProt Q13356 1-190, looked up)", "chain": "MGKRQHQKDKMYITCAEYTHFYGGKKPDLPQTNFRRLPFDHCSLSLQPFVYPVCTPDGIVFDLLNIVPWLKKYGTNPSNGEKLDGRSLIKLNFSKNSEGKYHCPVLFTVFTNNTHIVAVRTTGNVYAYEAVEQLNIKAKNFRDLLTDEPFSRQDIITLQDPTNLDKFNVSNFYHVKNNMKIIDPDEEKAK", "notes": "peptidylprolyl isomerase-like 2 (PPIL2), U-box domain construct, residues 1-190; the tie of 1-190 to the U-box goes by the order of the list; also called GST-PPIL2 (1-190); U-box domain of PPIL2; source: recombinant, prokaryotic expression vector pGEX6p-3"}},
  "molecular_target": "T1, recombinant His-p53 (UniProt P04637 1-393)",
  "T1 construct": "p53 from pET15b-p53 (Addgene plasmid 24859); also called pET15b-p53; source: recombinant, pET15b-p53 (Addgene)",
  "T1 sequence (P04637 whole entry)": "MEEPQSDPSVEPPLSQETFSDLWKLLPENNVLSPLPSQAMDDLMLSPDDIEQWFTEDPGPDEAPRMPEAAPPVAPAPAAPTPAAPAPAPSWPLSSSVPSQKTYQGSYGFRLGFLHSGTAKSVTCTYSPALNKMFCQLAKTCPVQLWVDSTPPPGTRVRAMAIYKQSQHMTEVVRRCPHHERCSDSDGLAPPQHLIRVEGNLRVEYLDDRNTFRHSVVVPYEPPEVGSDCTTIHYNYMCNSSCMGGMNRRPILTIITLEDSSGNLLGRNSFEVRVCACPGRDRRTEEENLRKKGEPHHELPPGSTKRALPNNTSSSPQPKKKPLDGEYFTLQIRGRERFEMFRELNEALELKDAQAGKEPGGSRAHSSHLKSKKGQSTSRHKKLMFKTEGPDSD",
  "assay": "pull-down; GST pulldown: 100 μg recombinant GST-PPIL2 protein with 100 μg recombinant His-p53 and MagneGST glutathione beads overnight at 4°C; washes with TENT buffer (1% Triton X-100, 140 mM NaCl, 2 mM EDTA, 20 mM Tris pH 8.0)",
  "conditions": "both partners purified",
  "data": [
    {"binder": "B1", "values": [
      {"measurement": "binding result", "value": "binds"}
    ]}
  ]
}
